The text below walks through data of article PMC2948018, “Identification of Thioaptamer Ligand against E-Selectin: Potential Application for Inflamed Vasculature Targeting”.

Test in all cases: EMSA; 5 mM Mg2+, Ca2+; EMSA: PBS with Ca2+ and Mg2+, 5 mM MgCl2, 1% NP40, room temperature 45 min, 4.6 pmol ESTA-1 with 0-19 pmol selectin in 10.5 ul, 6% gel run at 4 C; cell binding: 20 min at 37 C; pH not stated
On the technique in general: Mobility shift assays separate free from complexed probe on a gel.

In one series the target is P-selectin (UniProt P16109 42-771). The following applies: protein: recombinant; label: none in EMSA (SYBR Gold stain); two hairpin loops (MFOLD).
Chain of P-selectin (P16109 42-771): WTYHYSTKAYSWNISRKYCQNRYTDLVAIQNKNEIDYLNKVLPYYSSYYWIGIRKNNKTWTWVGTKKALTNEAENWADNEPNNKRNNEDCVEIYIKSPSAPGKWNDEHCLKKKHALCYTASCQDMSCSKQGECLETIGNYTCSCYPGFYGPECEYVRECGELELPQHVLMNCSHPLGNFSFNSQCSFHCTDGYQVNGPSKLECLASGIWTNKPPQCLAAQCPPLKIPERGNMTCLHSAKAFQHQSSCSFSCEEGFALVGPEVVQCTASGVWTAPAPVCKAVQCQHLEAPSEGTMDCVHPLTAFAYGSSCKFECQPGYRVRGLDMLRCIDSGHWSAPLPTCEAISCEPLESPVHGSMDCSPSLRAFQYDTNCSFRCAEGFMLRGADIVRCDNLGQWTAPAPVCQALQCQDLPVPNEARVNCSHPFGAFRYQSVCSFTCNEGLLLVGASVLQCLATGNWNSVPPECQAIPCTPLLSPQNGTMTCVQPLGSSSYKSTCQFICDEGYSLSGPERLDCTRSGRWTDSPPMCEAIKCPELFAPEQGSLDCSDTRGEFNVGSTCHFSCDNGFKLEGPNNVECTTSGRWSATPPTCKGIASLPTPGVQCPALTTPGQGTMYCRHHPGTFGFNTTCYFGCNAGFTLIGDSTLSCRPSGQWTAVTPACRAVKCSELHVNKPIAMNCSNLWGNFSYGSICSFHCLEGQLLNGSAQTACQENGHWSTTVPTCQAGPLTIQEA
Series [1] has as its target T1, E-selectin extracellular domain (human, UniProt P16581 22-556).
T1 sequence: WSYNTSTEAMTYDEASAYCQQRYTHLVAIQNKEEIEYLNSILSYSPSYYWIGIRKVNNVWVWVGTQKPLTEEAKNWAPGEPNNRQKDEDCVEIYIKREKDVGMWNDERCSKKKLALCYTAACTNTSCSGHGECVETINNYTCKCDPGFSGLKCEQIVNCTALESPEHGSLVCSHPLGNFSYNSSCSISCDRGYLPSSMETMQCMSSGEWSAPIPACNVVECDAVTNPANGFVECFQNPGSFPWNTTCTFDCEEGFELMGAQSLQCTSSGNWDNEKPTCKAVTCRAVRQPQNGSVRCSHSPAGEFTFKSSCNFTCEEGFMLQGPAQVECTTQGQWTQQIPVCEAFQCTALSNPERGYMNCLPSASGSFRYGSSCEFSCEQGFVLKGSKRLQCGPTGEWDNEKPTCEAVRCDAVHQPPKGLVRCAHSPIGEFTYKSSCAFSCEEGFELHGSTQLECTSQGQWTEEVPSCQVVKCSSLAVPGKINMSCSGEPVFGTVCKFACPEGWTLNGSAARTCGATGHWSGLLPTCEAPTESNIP
The following applies: protein: commercial; label: none in EMSA (SYBR Gold stain); two hairpin loops (MFOLD).

The next series deals with T2, L-selectin (UniProt P14151 39-332).
T2 sequence: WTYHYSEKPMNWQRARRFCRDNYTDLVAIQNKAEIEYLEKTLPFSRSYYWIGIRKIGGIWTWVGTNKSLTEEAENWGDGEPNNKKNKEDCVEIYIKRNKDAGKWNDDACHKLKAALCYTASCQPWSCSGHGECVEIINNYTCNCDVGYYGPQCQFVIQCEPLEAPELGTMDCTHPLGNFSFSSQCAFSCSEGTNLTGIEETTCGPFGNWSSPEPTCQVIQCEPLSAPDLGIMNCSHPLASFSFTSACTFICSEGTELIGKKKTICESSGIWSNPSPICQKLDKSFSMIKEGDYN
The following applies: protein: recombinant; label: none in EMSA (SYBR Gold stain); two hairpin loops (MFOLD).

In general, Kd refers to a measure of binding affinity in units of concentration.

B1: ESTA-1 (TA-1) (XNA)
DNA: CGCTCGGATCGATAAGCTTCGATCCCACTCTCCCGTTCACTTCTCCTCACGTCACGGATCCTCTAGAGCACTG
modifications: monothiophosphate (Rp) at all dA except 5' primer region
Regarding B1, the results for the Kd (with P-selectin; in series [1]) were roughly 13 µM and 0.047 µM, respectively. Besides, the binding result in the series with L-selectin was “no binding”.
